The text below walks through data of US20160015814A1, “Fast-acting insulin formulation comprising a substituted anionic compound and a polyanionic compound” (ADOCIA, priority 2014, published 2016).

The target of data set [1] is human insulin (Homo sapiens, UniProt P01308). Nature of the data set: Test of dissolution of human insulin at its isoelectric point. Particulars: human insulin 100 IU/mL alone, pH 5.3. In kind it is physicochemical. From the text: If an interaction exists between human insulin and the substituted anionic compound, it is then possible to dissolve the human insulin at its isoelectric point. […] The appearance of the solution is documented.
human insulin, sequence (P01308 25-54 limits assumed): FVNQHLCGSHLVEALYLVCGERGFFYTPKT
human insulin, sequence (P01308 90-110 limits assumed): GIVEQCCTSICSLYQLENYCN

Data set [2] concerns humans. Conditions: injected subcutaneously, diabetic patients; cited from earlier work.

“Human insulin: Human insulin, tested at 100 IU/mL alone in the dissolution test; isoelectric point 5.3”: in data set [1], the Visual appearance entry was “Turbid”. Moreover, the “time to hypoglycemiant effect” value in data set [2] was 60 min.
